Where a chain is given by its changes, count along the chain named. Names may count otherwise.
What was measured:
Assay type in all cases: cell-based, human
[1] = tested on: wild-type and variant SNAP-GIPR; experiment: Single-concentration GIP cAMP response by HTRF in INS-1 cells; details: Fig S3E, mean
Procedure: (§1) All variants were tested in parallel on each occasion to control for transfection efficiency differences between experiments.

[2] = tested on: wild-type and variant SNAP-GIPR; experiment: Surface SNAP-GIPR expression (SNAP-tag labelling) in INS-1 cells; details: Fig 4G; Mean
How it was run: (§2)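 Read-out: whole-cell fluorescence of surface-only SNAP label (Alexa Fluor 647, 500 nM, 10 min, RT), wide-field 20X, several FOVs per well. Flat-field corrected, phase-contrast masked, nontransfected-well signal subtracted; normalized to experiment mean or wild-type.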

[3] = tested on: wild-type and variant SNAP-GIPR; experiment: cADDis cAMP imaging in AD293 cells, ensemble, expression-matched and per decile; details: Fig S3F, cADDis, mean;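 also: Ensemble cells as % of IBMX/FSK response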
How it was run: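 AD293 cells were transfected with SNAP-GIPR constructs and cotransduced with the cADDis Green Up cAMP sensor, then labeled after 24 h with 500 nM SNAP-Surface Alexa Fluor 647. Per-cell cADDis intensity was tracked at 37°C in KRBH with 6 mM glucose and 0.1% BSA.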

[4] = tested on: wild-type and variant SNAP-GIPR; experiment: Constitutive and agonist-mediated internalization, reversible SNAP-tag labelling, INS-1 cells; parameters: key to Internalisation, GIP-only / Internalisation, Vehicle / Internalisation, +GIP: % internalization: residual fluorescence after Mesna vs pre-Mesna; details: Mean; for +GIP internalisation (100 nM) / GIP-specific internalisation (100 nM) / Constitutive internalisation (100 nM): Fig 4G; for +GIP internalisation (100 nM) / GIP-specific internalisation (100 nM): GIP 100 nM; for Internalisation, +GIP / Internalisation, GIP-only / Internalisation, Vehicle: Fig S4C, INS-1
How it was run: (§3)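 Percentage internalization is read as the fraction of specific SNAP fluorescence that survives Mesna stripping, compared with the image taken before Mesna. Wells are imaged in TNE buffer at pH 8.6 and again after 10 min.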

[5] = tested on: wild-type and variant SNAP-GIPR; experiment: Constitutive and agonist-mediated internalization, reversible SNAP-tag labelling, AD293 cells; parameters: key to Internalisation, Vehicle / Internalisation, +GIP / Internalisation, GIP-only: % internalization: residual fluorescence after Mesna vs pre-Mesna; Surface expression: unit not given here; details: Mean; for +GIP internalisation (100 nM) / GIP-specific internalisation (100 nM) / Constitutive internalisation (100 nM) / Surface expression: Fig 4E; for +GIP internalisation (100 nM) / GIP-specific internalisation (100 nM): GIP 100 nM; for Internalisation, +GIP / Internalisation, GIP-only / Internalisation, Vehicle: Fig S4C, AD293
How it was run: as §3

[6] = tested on: wild-type and variant SNAP-GIPR; experiment: Single-concentration GIP cAMP response by HTRF in AD293 cells; details: Fig S3F, HTRF, mean;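 also: ratio to experiment-wide average response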
Procedure: as §1

[7] = tested on: wild-type and variant SNAP-GIPR; experiment: Surface SNAP-GIPR expression (SNAP-tag labelling) in AD293 cells; details: for AD293 Surface: Fig S3E, mean; for Surface SNAP-GIPR expression: sheet Fig 1C;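 as to all read-outs here: scaled to the experimental average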
How it was run: as §2

[8] = column repeated, paired with cAMP 100 nM

B1: S415I (protein, UniProt P48546 22-466, looked up, variant S415I)
Gastric inhibitory …: RAETGSKGQTAGELYQRWERYRRECQETLAAAEPPSGLACNGSFDMYVCWDYAAPNATARASCPWYLPWHHHVAAGFVLRQCGSDGQWGLWRDHTQCENPEKNEAFLDQRLILERLQVMYTVGYSLSLATLLLALLILSLFRRLHCTRNYIHINLFTSFMLRAAAILSRDRLLPRPGPYLGDQALALWNQALAACRTAQIVTQYCVGANYTWLLVEGVYLHSLLVLVGGSEEGHFRYYLLLGWGAPALFVIPWVIVRYLYENTQCWERNEVKAIWWIIRTPILMTILINFLIFIRILGILLSKLRTRQMRCRDYRLRLARSTLTLVPLLGVHEVVFAPVTEEQARGALRFAKLGFEIFLSSFQGFLVSVLYCFINKEVQSEIRRGWHHCRLRRILGEEQRQLPERAFRALPSGSGPGEVPTSRGLSSGTLPGPGNEASRELESYC
[1]
  INS-1 cAMP (100 nM): 1.251
[2]
  Surface expression: 1.368
[3]
  AD293 100 pM cADDis: 31.0791
  AD293 100 nM cADDis: 35.96
[4]
  +GIP internalisation (100 nM): 0.7564
  GIP-specific internalisation (100 nM): 0.2171
  Constitutive internalisation (100 nM): 0.5393
  Internalisation, +GIP: 53.8917
  Internalisation, GIP-only: 15.145
  Internalisation, Vehicle: 38.7467
[5]
  +GIP internalisation (100 nM): 0.7539
  GIP-specific internalisation (100 nM): 0.1889
  Constitutive internalisation (100 nM): 0.565
  Surface expression: 1.257
  Internalisation, +GIP: 60.2605
  Internalisation, GIP-only: 14.9072
  Internalisation, Vehicle: 45.3533
[6]
  AD293 100 pM HTRF: 1.488
  AD293 100 nM HTRF: 1.113
[7]; [8]
  AD293 Surface: 1.415
[7]; paired with cAMP 100 pM
  AD293 Surface: 1.415
[7]; replicate 1
  Surface SNAP-GIPR expression: 1.538
[7]; replicate 2
  Surface SNAP-GIPR expression: 1.541
[7]; replicate 3
  Surface SNAP-GIPR expression: 0.8191
[7]; replicate 4
  Surface SNAP-GIPR expression: 0.7376
[7]; replicate 5
  Surface SNAP-GIPR expression: 1.239
[7]; replicate 6
  Surface SNAP-GIPR expression: 0.9541
[7]; replicate 7
  Surface SNAP-GIPR expression: 1.285
[7]; replicate 8
  Surface SNAP-GIPR expression: 1.716
[7]; replicate 9
  Surface SNAP-GIPR expression: 1.542
[7]; replicate 10
  Surface SNAP-GIPR expression: 1.528
[7]; replicate 11
  Surface SNAP-GIPR expression: 1.71
[7]; replicate 12
  Surface SNAP-GIPR expression: 1.642
[7]; replicate 13
  Surface SNAP-GIPR expression: 1.407
[7]; replicate 14
  Surface SNAP-GIPR expression: 1.415
[7]; replicate 15
  Surface SNAP-GIPR expression: 1.606
[7]; replicate 16
  Surface SNAP-GIPR expression: 1.78
[7]; replicate 17
  Surface SNAP-GIPR expression: 1.435
[7]; replicate 18
  Surface SNAP-GIPR expression: 1.518
[7]; replicate 19
  Surface SNAP-GIPR expression: 1.637
[7]; replicate 20
  Surface SNAP-GIPR expression: 1.459
[7]; replicate 21
  Surface SNAP-GIPR expression: 1.421
[7]; replicate 22
  Surface SNAP-GIPR expression: 1.515
[7]; replicate 23
  Surface SNAP-GIPR expression: 1.665
[7]; replicate 24
  Surface SNAP-GIPR expression: 1.354
[7]; replicate 25
  Surface SNAP-GIPR expression: 1.699
[7]; replicate 26
  Surface SNAP-GIPR expression: 1.338
[7]; replicate 27
  Surface SNAP-GIPR expression: 1.389
[7]; replicate 28
  Surface SNAP-GIPR expression: 1.441
[7]; replicate 29
  Surface SNAP-GIPR expression: 1.484
[7]; replicate 30
  Surface SNAP-GIPR expression: 1.535
[7]; replicate 31
  Surface SNAP-GIPR expression: 1.596
[7]; replicate 32
  Surface SNAP-GIPR expression: 1.349
[7]; replicate 33
  Surface SNAP-GIPR expression: 1.554
[7]; replicate 34
  Surface SNAP-GIPR expression: 1.711
[7]; replicate 35
  Surface SNAP-GIPR expression: 1.113
[7]; replicate 36
  Surface SNAP-GIPR expression: 1.535
[7]; replicate 37
  Surface SNAP-GIPR expression: 1.264
[7]; replicate 38
  Surface SNAP-GIPR expression: 1.181
[7]; replicate 39
  Surface SNAP-GIPR expression: 0.9176
[7]; replicate 40
  Surface SNAP-GIPR expression: 1.301
[7]; replicate 41
  Surface SNAP-GIPR expression: 1.157

B2: S447T (protein, UniProt P48546 22-466, looked up, variant S447T)
Gastric inhibitory …: B1 Gastric inhibitory … with I394S, S426T
[1]
  INS-1 cAMP (100 nM): 1.225
[2]
  Surface expression: 1.143
[3]
  AD293 100 pM cADDis: 33.2503
  AD293 100 nM cADDis: 38.05
[4]
  +GIP internalisation (100 nM): 0.5789
  GIP-specific internalisation (100 nM): 0.1373
  Constitutive internalisation (100 nM): 0.4416
  Internalisation, +GIP: 49.3117
  Internalisation, GIP-only: 11.6867
  Internalisation, Vehicle: 37.625
[5]
  +GIP internalisation (100 nM): 0.6943
  GIP-specific internalisation (100 nM): 0.1731
  Constitutive internalisation (100 nM): 0.5211
  Surface expression: 1.271
  Internalisation, +GIP: 54.6308
  Internalisation, GIP-only: 13.6704
  Internalisation, Vehicle: 40.9604
[6]
  AD293 100 pM HTRF: 1.563
  AD293 100 nM HTRF: 1.418
[7]; [8]
  AD293 Surface: 1.404
[7]; paired with cAMP 100 pM
  AD293 Surface: 1.404
[7]; replicate 1
  Surface SNAP-GIPR expression: 1.604
[7]; replicate 2
  Surface SNAP-GIPR expression: 1.279
[7]; replicate 3
  Surface SNAP-GIPR expression: 1.391
[7]; replicate 4
  Surface SNAP-GIPR expression: 2.61
[7]; replicate 5
  Surface SNAP-GIPR expression: 1.403
[7]; replicate 6
  Surface SNAP-GIPR expression: 1.423
[7]; replicate 7
  Surface SNAP-GIPR expression: 1.077
[7]; replicate 8
  Surface SNAP-GIPR expression: 1.469
[7]; replicate 9
  Surface SNAP-GIPR expression: 1.63
[7]; replicate 10
  Surface SNAP-GIPR expression: 1.374
[7]; replicate 11
  Surface SNAP-GIPR expression: 1.745
[7]; replicate 12
  Surface SNAP-GIPR expression: 1.689
[7]; replicate 13
  Surface SNAP-GIPR expression: 1.462
[7]; replicate 14
  Surface SNAP-GIPR expression: 1.46
[7]; replicate 15
  Surface SNAP-GIPR expression: 1.674
[7]; replicate 16
  Surface SNAP-GIPR expression: 1.628
[7]; replicate 17
  Surface SNAP-GIPR expression: 1.349
[7]; replicate 18
  Surface SNAP-GIPR expression: 1.205
[7]; replicate 19
  Surface SNAP-GIPR expression: 1.299
[7]; replicate 20
  Surface SNAP-GIPR expression: 1.361
[7]; replicate 21
  Surface SNAP-GIPR expression: 1.342
[7]; replicate 22
  Surface SNAP-GIPR expression: 1.393
[7]; replicate 23
  Surface SNAP-GIPR expression: 1.314
[7]; replicate 24
  Surface SNAP-GIPR expression: 1.27
[7]; replicate 25
  Surface SNAP-GIPR expression: 1.747
[7]; replicate 26
  Surface SNAP-GIPR expression: 1.476
[7]; replicate 27
  Surface SNAP-GIPR expression: 1.434
[7]; replicate 28
  Surface SNAP-GIPR expression: 1.161
[7]; replicate 29
  Surface SNAP-GIPR expression: 0.9451
[7]; replicate 30
  Surface SNAP-GIPR expression: 1.119
[7]; replicate 31
  Surface SNAP-GIPR expression: 1.316
[7]; replicate 32
  Surface SNAP-GIPR expression: 1.418
[7]; replicate 33
  Surface SNAP-GIPR expression: 1.322
[7]; replicate 34
  Surface SNAP-GIPR expression: 1.362
[7]; replicate 35
  Surface SNAP-GIPR expression: 1.415
[7]; replicate 36
  Surface SNAP-GIPR expression: 1.515
[7]; replicate 37
  Surface SNAP-GIPR expression: 1.174
[7]; replicate 38
  Surface SNAP-GIPR expression: 1.292
[7]; replicate 39
  Surface SNAP-GIPR expression: 1.035
[7]; replicate 40
  Surface SNAP-GIPR expression: 1.181
[7]; replicate 41
  Surface SNAP-GIPR expression: 1.207
